# Data: patent US20060211084A1 (TH NITRATE ELIMINATION, published 2006)
# B1: simplified eukaryotic nitrate reductase (S-NaR1) (enzyme)
# chain: MDSIVTEVTYGLEIKKIKDITELPFPVRQDSPLTEVLPTDLKTKDNFVARDPDLLRLTGSHPFNSEPPLTKLYDSGFLTPVSLHFVRNHGPVPYVPDENILDWEVSIEGMVETPYKIKLSDIMEQFDIYSTPVTMVCAGNRRKEQNMVKKGAGFNWGAAGTSTSLWTGCMLGDVIGKARPSKRARFVWMEGADNPANGAYRTCIRLSWCMDPERCIMIAYQQNGEWLHPDHGKPLRVVIPGVIGGRSVKWLKKLVVSDRPSENWYHYFDNRVLPTMVTPEMAKSDDRWWKDERYAIYDLNLQTIICKPENQQVIKISEDEYEIAGFGYNGGGVRIGRIEVSLDKGKSWKLADIDYPEDRYREAGYFRLFGGLVNVCDRMSCLCWCFWKLKVPLSELARSKDILIRGMDERMMVQPRTMYWNVTSMLNNWWYRVAIIREGESLRFEHPVVANKPGGWMDRVKAEGGDILEQKLISEEDLNSAVDHHHHHH
# notes: Expressed in Pichia pastoris and purified by nickel IMAC; also called nitrate-reducing portion of Pichia angusta NAD(P)H: nitrate reductase
# Target: the molecule itself
# Test: gel filtration chromatography (self-association)
protein,measurement,value
B1,binding result,binds
